Columns and labels:
[1] = molecular target: T1, human PD-L1 on Raji cells (human, UniProt Q9NZQ7 19-290); assay: cell-based or functional assay
[2] = molecular target: T2, mouse PDL1-His (mouse, UniProt Q9EP73 19-238, limits assumed); assay: ELISA, PDL1-His coated at 0.5 µg/ml
T2 construct: not shown: His tag
Method: (§1) Human, cyno, rat and mouse PDL1-His proteins were coated at 0.5 μg/ml at 4° C. overnight. […] The plates were washed and then incubated with HRP conjugated mouse anti-human IgG Fc antibody followed by development with TMB substrate and analyzed by spectrophotometer at OD 450 nm.

[3] = molecular target: rat PDL1-His (rat, UniProt D4AE25 19-239); assay: ELISA, PDL1-His coated at 0.5 µg/ml
rat PDL1-His, sequence (D4AE25 entry or part of it limits assumed): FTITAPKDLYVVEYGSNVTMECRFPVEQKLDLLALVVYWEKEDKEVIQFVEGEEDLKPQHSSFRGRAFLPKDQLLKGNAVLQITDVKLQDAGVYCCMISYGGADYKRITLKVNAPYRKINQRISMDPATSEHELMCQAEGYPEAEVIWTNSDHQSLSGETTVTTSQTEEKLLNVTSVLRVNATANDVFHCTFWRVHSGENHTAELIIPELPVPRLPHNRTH
Method: as §1

[4] = molecular target: T1, human PD-L1 on Raji cells; assay: flow cytometry blocking assay on Raji-PDL1 cells; blocked ligand: biotinylated Avi- and His-tag human PD1 protein at 3 ug/mL, Streptavidin-PE, MFI
Method: Raji cells over-expressing human PDL1 were seeded into the 96 well plate at a concentration of 1×10⁵ cells per well. […] Fluorescence was measured by flow cytometry and analyzed by Flowjo software to determine the mean fluorescence intensities (MFI).

[5] = molecular target: cyno PDL1-His (cyno, UniProt G7PSE7 19-238); assay: ELISA, plate coated with PDL1-His at 0.5 ug/ml, detection with HRP mouse anti-human IgG Fc, OD 450nm
cyno PDL1-His, sequence (G7PSE7 entry or part of it limits assumed): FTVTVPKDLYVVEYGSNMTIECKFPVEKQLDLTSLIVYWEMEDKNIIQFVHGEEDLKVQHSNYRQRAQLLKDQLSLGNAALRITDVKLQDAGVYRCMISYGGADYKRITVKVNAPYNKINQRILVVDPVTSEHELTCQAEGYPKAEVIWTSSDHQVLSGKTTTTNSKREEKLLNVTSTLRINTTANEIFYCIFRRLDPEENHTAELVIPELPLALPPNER
Method: as §1

[6] = molecular target: T3, His-tagged human PD-L1 (human, UniProt Q9NZQ7 19-238, limits assumed); assay: as above
T3 construct: also called Human PD-L1 protein; Human PDL1-His; not shown: His tag
T3 sequence (Q9NZQ7 19-238 limits assumed): as the sequence (G7PSE7 entry or part of it limits assumed) above, with T33A, S34A, N62S, Q68R, R82Q, L173F, A185T, I192T, L215H counted along it
Method: as §1

[7] = molecular target: T3, His-tagged human PD-L1; assay: Biacore T200 SPR, B12-01 captured on a protein A chip, human PD-L1-His injected at 25 nM-1.56 nM
From the text: (§2) The ligand was allowed to associate for 120 s and dissociate for 600 s.

[8] = molecular target: T3, His-tagged human PD-L1; assay: SPR, Biacore T200; B12-01 captured on protein A chip, human PD-L1 25 nM-1.56 nM injected
From the text: as §2

T1 sequence (Q9NZQ7 19-290): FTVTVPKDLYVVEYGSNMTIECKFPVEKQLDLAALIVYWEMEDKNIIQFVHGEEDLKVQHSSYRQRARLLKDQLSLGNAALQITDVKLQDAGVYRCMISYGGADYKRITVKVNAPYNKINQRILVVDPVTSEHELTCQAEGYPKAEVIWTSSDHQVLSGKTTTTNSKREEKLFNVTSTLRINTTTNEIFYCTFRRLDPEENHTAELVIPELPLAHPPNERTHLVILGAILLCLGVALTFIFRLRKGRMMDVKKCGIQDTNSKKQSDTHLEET
T2 sequence (Q9EP73 19-238 limits assumed): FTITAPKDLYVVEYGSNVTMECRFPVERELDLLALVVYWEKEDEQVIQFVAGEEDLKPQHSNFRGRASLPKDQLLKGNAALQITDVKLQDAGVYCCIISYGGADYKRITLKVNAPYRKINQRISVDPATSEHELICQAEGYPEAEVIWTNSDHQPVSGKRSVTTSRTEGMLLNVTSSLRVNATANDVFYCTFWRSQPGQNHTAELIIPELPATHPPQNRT

- EC50, NF-AT-luciferase activity, PD-1 Jurkat cells with Raji-PD-L1 cells [1]: 0.098 nM
- binding result [2]: no binding
- binding result [3]: no binding
- EC50 [4]: 0.14 nM
- EC50 (read off the curve) [5]: ~0.04 nM
- EC50 (read off the curve) [6]: ~0.03 nM
- koff [7]: 0.000795 s⁻¹
- kon [7]: 838000 M⁻¹ s⁻¹
- Kd [8]: 0.948 nM
B1: B12-01 (antibody, V domains shown)
VH: QVQLLESGGGLVQPGGSLRLSCAASGFTFSSYWMSWVRQAPGKGLEWVANIKQDGSEKYYVDSVKGRFTISRDNAKNSLYLQMNSLRAEDTAVYYCARVALWDDAFDIWGQGTMVTVSS
VL: DIQMTQSPSTLSASVGDRVIITCRASRGISSWLAWYQQKPGKAPNLLISKASSLESGVPSRFSGSGSGTDFTLTISSLQPEDFATYYCQQSSSIPLTFGGGTKVEIK
notes: Variant of B12 with serine at the C-terminus of VH and DIQM at the N-terminus of VL; captured on protein A and detected with anti-human IgG Fc, so a human IgG; also called B12-01 antibody
